In US20090197797A1, “USE OF HYALURONIC ACID AS A CARRIER MOLECULE FOR DIFFERENT CLASSES OF THERAPEUTIC ACTIVE AGENTS” (priority 2006, published 2009):

Assay: storage stability of HA-6-MTX checked by repeated NMR spectrum
Type: physicochemical
Settings: 3-months storage at room temperature; compared with freshly prepared product
Procedure: A solution of HA-OMs:TBA salt from Example 10 (500 mg; 0.73 mmol) in DMSO (15 ml) was treated with a solution of methotrexate (833 mg; 1.83 mmol) in DMSO (10 ml) in the presence of solid cesium carbonate (596 mg; 1.83 mmol). The mixture was stirred under nitrogen at 80° C. for 18 h, whereupon it darkened with formation of solids. It was then cooled to ambient temperature, poured into 100 ml of water (pH 6.5), treated with 15 ml of saturated NaCl solution, and stirred for 1.5 h. Then solids were filtered off and the solution was ultrafiltered, concentrated and freeze-dried to give 131 mg of a yellow-brownish solid. […] HPLC analysis gave 32% w/w, corresponding to 40% mol/mol.

6-O-Methotrexylhyaluronic Acid [Example 24]
NMR spectrum repeated on the same sample after storage (stability of substitution degree): the substitution degree is maintained and no by-products are formed
